For the assay, the target named is dCas9-24XGP41 (Streptococcus pyogenes serotype M1) (UniProt Q99ZW2). The assay can be described thus: cell-based or functional assay.

In the case of “NbGP41-sfGFP-VP64-GB1 (from UniProt P06654 228-282) (VHH)”, the expression of CLV3 in homozygous Setaria MoonTag lines against wild-type ME34 (RT-qPCR) came out at 100 fold.

Source of the values: patent publication US20250002926A1.
